Data reported in patent publication US8974802B2, “Medicament for the treatment of cancer of the pancreas” (Erytech Pharma, priority 2007, dated 2015).

Experiments:
[1] = tested on: PANC-1 human pancreatic tumor (clone no. 6sC); test: In vivo anti-tumoral study in mice bearing pancreatic tumor PANC-1; settings: day 43, L-aspa RBC single 200 IU/kg i.v., gemcitabine 4 x 80 mg/kg i.v.
Text: The objective of this study was to assess the antitumoral effects of L-asparaginase encapsulated in red blood cells (L-aspa RBC) administered in a human pancreatic tumor (PANC-1) xenograft model.
In this study, 4 groups of 15 mice received either L-asparaginase encapsulated in red blood cells, gemcitabine (reference treatment in pancreatic cancer), a combination of both agents or control item. A last group of 10 mice received no treatment and was used as control group.
A Log-growing culture of human pancreatic tumor cells, PANC-1 (obtained from ECCAC, UK), was subcloned and the clone no.
Clone no 6sC was trypsinized, counted, washed and resuspended in serum-free DMEM medium for sub-cutaneous injection to 100 nu/nu athymic mice.
Hundred athymic Nude mice of 5 week-old, weighing 20 g+/−3 g were supplied by Harlan France. […]
Four days after cell implantation, tumor volumes were measured and ranked according to size and median was calculated. […]
Tumor measurements were recorded 3 times a week (on Mondays, Wednesday and Friday) during 43 days.
The relative tumor volume is calculated by dividing the tumor volume at a given day by the tumor volume before treatment avoiding the bias due to statistical difference in tumor volume between groups on the day of injection.

MIA Paca-2 cells [2] = settings: nude mice; PEG-asparaginase 12.5 or 25 IU/g per day i/p for 14 days; gemcitabine 80 mg/kg i/p days 1, 4, 7, 10; cited from earlier work
MIA Paca-2 cells [3] = settings: PEG-asparaginase 0.8 kIU/kg; gemcitabine 80 mg/kg; mice; cited from earlier work
[4] = tested on: Mia PaCa-2 human pancreatic tumour cells; test: Growth inhibition of human pancreatic tumours (Mia PaCa-2) in nude mice; format: in vivo; settings: after 57 days, L-Aspa RBC single 200 IU/kg i.v., gemcitabine 4 x 60 mg/kg i.v.
Text: The purpose of this experiment is to inject L-Aspa RBC into mice bearing human pancreatic tumours and to observe a tumour growth inhibition. A cell line sensitive to L-asparaginase in vitro, and deficient in L-asparagine synthase, was selected: Mia PaCa-2. To study the tumour growth inhibition after the injection of L-Aspa RBC, an in vivo protocol was set up with 4 groups of 12 mice. A reference treatment for cancer of the pancreas, gemcitabine, is included in the protocol. Human pancreatic tumour cells (Mia PaCa-2) in exponential growth phase (origin ATCC: American Type Culture Collection) were subjected to tryptic digestion, then counted and washed before finally being resuspended in a DMEM serum-free medium in order for them to be injected subcutaneously into 48 athymic nude/nude mice. The 48 athymic nude/nude (nude balb/c) mice, aged 5-6 weeks and between 18 and 22 g in weight, were supplied by Harlan (France). The animals were kept for 7 days in a specialized SPF (specific-pathogen-free) unit before the treatment. The 48 mice were divided randomly into 4 groups of 12 mice. […]

MIA Paca-2 cells [5] = settings: cited from earlier work
[6] = tested on: human pulmonary and melanoma cells; settings: Yunis et al. 1977; cited from earlier work
pancreatic carcinoma = settings: cited from earlier work
[7] = direct injection; cited from earlier work
PANC-1 cells = settings: cited from earlier work
PANC 10.05 = settings: AACR 2006; cited from earlier work
AsPC-1 = settings: AACR 2006; cited from earlier work
solid tumor = settings: trial suspended; cited from earlier work
CFPAC-2 = settings: AACR 2006; cited from earlier work
BxPC-3 cells = settings: 10 IU/ml; Denis et al. 1999; cited from earlier work

Nc1ccn([C@@H]2O[C@H](CO)[C@@H](O)C2(F)F)c(=O)n1 [gemcitabine]
mouse survival (mice remaining / still alive) [1]: 20%
relative tumor volume ([1]; tumor volume divided by volume before treatment): 51.8±17.1
cell growth inhibition in vivo (MIA Paca-2 cells [2]): 63.5%
decrease of tumour volume (MIA Paca-2 cells [3]): 29%
tumour volume [4]: 1353±1016 mm^3

B1: asparaginase (protein, UniProt P00805 23-348, looked up)
L-asparaginase 2: LPNITILATGGTIAGGGDSATKSNYTVGKVGVENLVNAVPQLKDIANVKGEQVVNIGSQDMNDNVWLTLAKKINTDCDKTDGFVITHGTDTMEETAYFLDLTVKCDKPVVMVGAMRPSTSMSADGPFNLYNAVVTAADKASANRGVLVVMNDTVLDGRDVTKTNTTDVATFKSVNYGPLGYIHNGKIDYQRTPARKHTSDTPFDVSKLNELPKVGIVYNYANASDLPAKALVDAGYDGIVSAGVGNGNLYKSVFDTLATAAKTGTAVVRSSRVPTGATTQDAEVDDAKYGFVASGTLNPQKARVLLQLALTQTKDPQQIQQIFNQY
notes: bacterial enzyme, CAS number 9015-68-3, hydrolyses and depletes asparagine
inhibition of cell growth (MIA Paca-2 cells [5]; 0.0025 IU/ml, Wu et al. 1982): no effect
effect on the growth of the cells (MIA Paca-2 cells [5]; 0.1 IU/ml, Yunis et al. 1977): significant effect on the growth of the cells
effect on cell growth (MIA Paca-2 cells [5]; 0.5 and 1 IU/ml, Yunis et al. 1977): total inhibition of cell growth with cell death
effect on growth [6]: no effect
side-effects (pancreatic carcinoma; IV 1000 IU/kg/day, ten patients with inoperable pancreatic cancer, treatment stopped early): Serious side-effects appeared rapidly
clinical response (pancreatic carcinoma; two of the patients, Lessner 1977): no response
allergic reaction incidence [7]: 27%
inhibition of cell growth (PANC-1 cells; 0.0025 IU/ml, Wu et al. 1982): no effect
effect on cell growth (PANC-1 cells; 1 IU/ml, Yunis et al. 1977): has an effect

B2: PEG-asparaginase: pegylated form of asparaginase (Oncaspar, Enzon Pharmaceuticals) (protein, UniProt P00805 23-348, looked up)
L-asparaginase 2: LPNITILATGGTIAGGGDSATKSNYTVGKVGVENLVNAVPQLKDIANVKGEQVVNIGSQDMNDNVWLTLAKKINTDCDKTDGFVITHGTDTMEETAYFLDLTVKCDKPVVMVGAMRPSTSMSADGPFNLYNAVVTAADKASANRGVLVVMNDTVLDGRDVTKTNTTDVATFKSVNYGPLGYIHNGKIDYQRTPARKHTSDTPFDVSKLNELPKVGIVYNYANASDLPAKALVDAGYDGIVSAGVGNGNLYKSVFDTLATAAKTGTAVVRSSRVPTGATTQDAEVDDAKYGFVASGTLNPQKARVLLQLALTQTKDPQQIQQIFNQY
modifications: PEG
in vitro cytotoxicity (IC50) (PANC 10.05): 0.46 IU/ml
cell growth inhibition (MIA Paca-2 cells [5]; 1 IU/ml, Denis et al. 1999): 61%
in vitro cytotoxicity (IC50) (MIA Paca-2 cells [5]; AACR 2006): 0.66 IU/ml
IC50 (MIA Paca-2 cells [5]; Denis et al. 1999): 0.13 IU/ml
cell growth inhibition in vivo (MIA Paca-2 cells [2]): 59%
in vitro cytotoxicity (IC50) (AsPC-1): greater than 20 IU/ml
clinical trial outcome (solid tumor): toxicity was reached before efficacy
decrease of tumour volume (MIA Paca-2 cells [3]): 14%
cell growth inhibition (PANC-1 cells; 1 IU/ml, Denis et al. 1999): 100%
in vitro cytotoxicity (IC50) (PANC-1 cells; AACR 2006): 0.27 IU/ml
IC50 (PANC-1 cells; Denis et al. 1999): 0.25 IU/ml
in vitro cytotoxicity (IC50) (CFPAC-2): greater than 20 IU/ml
cell growth inhibition (BxPC-3 cells): 51%
